B1: Proline-serine-threonine phosphatase-interacting protein 2 (Mus musculus), Q99M15 (parent)
chain: MTGSLFKGNFWSTDILSTIGYDSIIQHLNNGRKNCKEFEDFLKERASIEEKYGKDLLNLSRKKPCGQSEINTLKRALEVFKQQVDNVAQCHIQLAQTLREEARKMEEFREKQKLQRKKTETIMDAAHKQRNAQFKKAMDAKKNYEQKCRDKDEAEQAVHRSANVANQRQQEKLFVKLATSKTAVEDSDKAYMLHINMLEKVREDWQSEHIKACEVFEAQECERINFFRNALWLHLNQLSQQCVANDEMYEQVRKSLETCSIEKDIQYFVNQRKTGQTPPAPIMYENFYSPQRNAAPPGKTTGPNPARRGPLPVPKRIPDDPDYSVVEDYSLLYQ
partner: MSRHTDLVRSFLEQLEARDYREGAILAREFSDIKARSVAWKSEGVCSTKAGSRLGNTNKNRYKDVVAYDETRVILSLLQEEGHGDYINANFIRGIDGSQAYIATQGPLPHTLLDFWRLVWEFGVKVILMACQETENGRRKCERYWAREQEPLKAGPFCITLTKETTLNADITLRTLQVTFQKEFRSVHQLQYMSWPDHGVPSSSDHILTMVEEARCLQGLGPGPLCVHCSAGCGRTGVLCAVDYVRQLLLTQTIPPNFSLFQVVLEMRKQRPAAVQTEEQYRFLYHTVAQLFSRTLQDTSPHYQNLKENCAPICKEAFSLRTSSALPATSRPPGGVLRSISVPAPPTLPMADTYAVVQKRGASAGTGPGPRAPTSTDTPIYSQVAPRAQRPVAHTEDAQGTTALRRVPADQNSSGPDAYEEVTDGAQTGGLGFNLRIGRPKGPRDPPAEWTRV
B2: Tyrosine-protein phosphatase non-receptor type 18 (Mus musculus), Q61152 (parent)
chain: B1 partner
B3: Proline-serine-threonine phosphatase-interacting protein 1 (Mus musculus), P97814 (parent)
chain: MMAQLQFRDAFWCRDFTAHTGYEVLLQRLLDGRKMCKDVEELLRQRAQAEERYGKELVQIARKAGGQTEMNSLRTSFDSLKQQTENVGSAHIQLALALREELRSLEEFRERQKEQRKKYEAIMDRVQKSKLSLYKKTMESKKAYDQKCRDADDAEQAFERVSANGHQKQVEKSQNKAKQCKESATEAERVYRQNIEQLERARTEWEQEHRTTCEAFQLQEFDRLTILRNALWVHCNQLSMQCVKDDELYEEVRLTLEGCDVEGDINGFIQSKSTGREPPAPVPYQNYYDREVTPLIGSPSIQPSCGVIKRFSGLLHGSPKTTPSAPAASTETLTPTPERNELVYASIEVQATQGNLNSSAQDYRALYDYTAQNSDELDISAGDILAVILEGEDGWWTVERNGQRGFVPGSYLEKL
partner: B1 partner
B4: Tyrosine-protein phosphatase non-receptor type 18 (Mus musculus), Q61152 (parent)
chain: B1 partner
partner: B1 chain

Variants of: B1
Details: with ptn18_mouse Ptpn18, Q61152

Variant | effect of a mutation on the interaction
MTGSLFKGNFWSTDILSTIGYDSIIQHLNNGRKNCKEFEDFLKERASIEEKYGKDLLNLSRKKPCGQSEINTLKRALEVFKQQVDNVAQCHIQLAQTLREEARKMEEFREKQKLQRKKTETIMDAAHKQRNAQFKKAMDAKKNYEQKCRDKDEAEQAVHRSANVANQRQQEKLFVKLATSKTAVEDSDKAYMLHINMLEKVREDWQSEHIKACEVFEAQECERINFFRNALALHLNQLSQQCVANDEMYEQVRKSLETCSIEKDIQYFVNQRKTGQTPPAPIMYENFYSPQRNAAPPGKTTGPNPARRGPLPVPKRIPDDPDYSVVEDYSLLYQ [W232A] | disrupting interaction

Variants of: B2
Details: with ppip1_mouse Pstpip1, P97814

Variant | effect of a mutation on the interaction
MSRHTDLVRSFLEQLEARDYREGAILAREFSDIKARSVAWKSEGVCSTKAGSRLGNTNKNRYKDVVAYDETRVILSLLQEEGHGDYINANFIRGIDGSQAYIATQGPLPHTLLDFWRLVWEFGVKVILMACQETENGRRKCERYWAREQEPLKAGPFCITLTKETTLNADITLRTLQVTFQKEFRSVHQLQYMSWPDHGVPSSSDHILTMVEEARCLQGLGPGPLCVHCSAGCGRTGVLCAVDYVRQLLLTQTIPPNFSLFQVVLEMRKQRPAAVQTEEQYRFLYHTVAQLFSRTLQDTSPHYQNLKENCAPICKEAFSLRTSSALPATSRPPGGVLRSISVPAPPTLPMADTYAVVQKRGASAGTGPGPRAPTSTDTPIYSQVAPRAQRPVAHTEDAQGTTALRRVPADQNSSGPDAYEEVTDGAQTGGLGFNLRIGRPKGPADPPAEWTRV [R444A] | decreasing interaction

Variants of: B2
Details: with ppip1_mouse Pstpip1, P97814
Remark: another data set of the same source

Variant | effect of a mutation on the interaction
MSRHTDLVRSFLEQLEARDYREGAILAREFSDIKARSVAWKSEGVCSTKAGSRLGNTNKNRYKDVVAYDETRVILSLLQEEGHGDYINANFIRGIDGSQAYIATQGPLPHTLLDFWRLVWEFGVKVILMACQETENGRRKCERYWAREQEPLKAGPFCITLTKETTLNADITLRTLQVTFQKEFRSVHQLQYMSWPDHGVPSSSDHILTMVEEARCLQGLGPGPLCVHCSAGCGRTGVLCAVDYVRQLLLTQTIPPNFSLFQVVLEMRKQRPAAVQTEEQYRFLYHTVAQLFSRTLQDTSPHYQNLKENCAPICKEAFSLRTSSALPATSRPPGGVLRSISVPAPPTLPMADTYAVVQKRGASAGTGPGPRAPTSTDTPIYSQVAPRAQRPVAHTEDAQGTTALRRVPADQNSSGPDAYEEVTDGAQTGGLGFNLRIGRPKGPRDPPAEATRV [W450A] | decreasing interaction

Variants of: B3
Details: with ptn18_mouse Ptpn18, Q61152

Variant | effect of a mutation on the interaction
W232A | disrupting interaction

Variants of: B4
Details: with ppip2_mouse Pstpip2, Q99M15

Variant | effect of a mutation on the interaction
MSRHTDLVRSFLEQLEARDYREGAILAREFSDIKARSVAWKSEGVCSTKAGSRLGNTNKNRYKDVVAYDETRVILSLLQEEGHGDYINANFIRGIDGSQAYIATQGPLPHTLLDFWRLVWEFGVKVILMACQETENGRRKCERYWAREQEPLKAGPFCITLTKETTLNADITLRTLQVTFQKEFRSVHQLQYMSWPDHGVPSSSDHILTMVEEARCLQGLGPGPLCVHCSAGCGRTGVLCAVDYVRQLLLTQTIPPNFSLFQVVLEMRKQRPAAVQTEEQYRFLYHTVAQLFSRTLQDTSPHYQNLKENCAPICKEAFSLRTSSALPATSRPPGGVLRSISVPAPPTLPMADTYAVVQKRGASAGTGPGPRAPTSTDTPIYSQVAPRAQRPVAHTEDAQGTTALRRVPADQNSSGPDAYEEVTDGAQTGGLGFNLRIGRPKGPADPPAEWTRV [R444A] | decreasing interaction

Variants of: B4
Details: with ppip2_mouse Pstpip2, Q99M15
Remark: another data set of the same source

Variant | effect of a mutation on the interaction
MSRHTDLVRSFLEQLEARDYREGAILAREFSDIKARSVAWKSEGVCSTKAGSRLGNTNKNRYKDVVAYDETRVILSLLQEEGHGDYINANFIRGIDGSQAYIATQGPLPHTLLDFWRLVWEFGVKVILMACQETENGRRKCERYWAREQEPLKAGPFCITLTKETTLNADITLRTLQVTFQKEFRSVHQLQYMSWPDHGVPSSSDHILTMVEEARCLQGLGPGPLCVHCSAGCGRTGVLCAVDYVRQLLLTQTIPPNFSLFQVVLEMRKQRPAAVQTEEQYRFLYHTVAQLFSRTLQDTSPHYQNLKENCAPICKEAFSLRTSSALPATSRPPGGVLRSISVPAPPTLPMADTYAVVQKRGASAGTGPGPRAPTSTDTPIYSQVAPRAQRPVAHTEDAQGTTALRRVPADQNSSGPDAYEEVTDGAQTGGLGFNLRIGRPKGPRDPPAEATRV [W450A] | decreasing interaction
